From patent publication US20230104769A1 (MABWELL SHANGHAI BIOSCIENCE, published 2023)

Tests used:
[1] = biological target: T1, recombinant human PD-1 protein (NCBI accession No.: NP_005009.2, 21aa-167aa) (human, UniProt Q15116 21-167); experiment: BLI Octet QKe, antibody on the sensor, single 100 nM PD-1
T1 construct: range 21-167; also called recombinant human PD-1 extracellular domain protein; PD-1-ECD
Method: Determination of the binding kinetics: the affinity of the antibody was determined with Octet QKe system from Fortebio using an assay of capturing biotin-labeled antibody with streptavidin. […] Both the binding and dissociating were conducted for 300 s.
The comparison of affinity between the variant antibodies and the parent antibody was performed using Octet QKe system supplied by Fortebio.

[2] = biological target: T2, cynomolgus monkey PD-1 (Cat: 90311-C08H, Sino Biological Inc.) (cynomolgus monkey, UniProt B0LAJ3 25-170); experiment: ELISA, plate coated with the PD-1 protein at 1 µg/mL, hybridoma supernatant diluted 100 times
T2 construct: Bought recombinant protein; not shown: The vendor's tag
Method: (§1) A plate was coated with recombinant human PD-1/His protein (NCBI accession No.: NP_005009.2, 21aa-167aa, Lot: 2016.2.22), cynomolgus monkey PD-1 (Cat: 90311-C08H, Sino Biological Inc.), rat PD-1 (Cat: 80448-R08H, Sino Biological Inc.) and mouse PD-1 (Cat: 50124-M08H, Sino Biological Inc.) in a concentration of 1 μg/mL overnight at 4° C., washed three times with PBS subsequently, and 5% BSA-PBS was added for blocking for 60 min at 37° C. The plate was washed three times with PBST afterwards, and supernatants of the hybridiomas diluted 100 times were added and incubated for 60 min at 37° C. Again, the plate was washed four times with PBST, HRP-Goat anti-mouse IgG (Fcγ) (Cat: 115-035-071, Jackson Immuno Research) with a dilution of 1:5000 was added for a 30 min incubation at 37° C. Once again, the plate was washed four times with PBST, and TMB substrate was added for developing color through incubating for 10 min at 37° C., then the reaction was terminated by adding 2 M HCl. With 630 nm as reference wavelength, the absorbance at 450 nm (A450 nm-630 nm) of each well in the plate was read and recorded.

[3] = biological target: T3, rat PD-1 (Cat: 80448-R08H, Sino Biological Inc.) (rat, UniProt D3ZIN8 25-169); experiment: as above
T3 construct: Bought recombinant protein; also called recombinant rat PD-1; not shown: The vendor's tag
T3 sequence: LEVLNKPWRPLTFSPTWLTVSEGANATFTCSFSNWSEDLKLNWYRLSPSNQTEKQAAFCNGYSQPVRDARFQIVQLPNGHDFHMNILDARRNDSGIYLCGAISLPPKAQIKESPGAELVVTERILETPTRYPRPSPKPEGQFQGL
Method: as §1

[4] = biological target: T4, mouse PD-1 (Cat: 50124-M08H, Sino Biological Inc.) (mouse, UniProt Q02242 25-167); experiment: as above
T4 construct: Bought recombinant protein; also called recombinant mouse PD-1
T4 sequence (looked up): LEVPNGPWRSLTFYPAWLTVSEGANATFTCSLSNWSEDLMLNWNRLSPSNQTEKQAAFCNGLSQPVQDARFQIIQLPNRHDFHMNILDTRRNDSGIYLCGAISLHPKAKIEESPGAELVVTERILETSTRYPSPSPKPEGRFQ
Method: as §1

[5] = biological target: T5, recombinant human PD-1/His protein (NCBI accession No.: NP_005009.2, 21aa-167aa, Lot: 2016.2.22) (human, UniProt Q15116 21-167); experiment: BLI (Fortebio BLITZ), antibody captured on AHC sensor, PD-1-His in solution
T5 construct: range 21-167; also called recombinant human PD-1 extracellular domain protein; not shown: His tag
Method: The light chain variable region gene and heavy chain variable region gene of the monoclonal antibody obtained through cloning, with cleavage sites of restriction enzymes introduced by PCR using the following primers (Table 3), were respectively cloned into the upstream of gene encoding human-kappa light chain constant region and the upstream of gene encoding the human IgG4 heavy chain constant region carried in eukaryotic expression vectors. […] The affinity of the antibody was determined by the anti-human antibody capture assay with Fortebio (BLITZ pro1.1.0.28). For the determination, anti-Human IgG Fc Capture (AHC) biosensors were soaked in PBS for 10 min. […] Subsequently, the AHC biosensors were reacted with the diluted recombinant human PD-1-His protein (NCBI accession No.: NP_005009.2, 21aa-167aa, Lot: 2016.2.22) of different concentrations (1 μM, 0.6 μM and 0 nM) for binding for 45 s, and was then transferred into PBS for dissociating for 120 s.

T5 sequence (Q15116 21-167 limits assumed, form in doubt): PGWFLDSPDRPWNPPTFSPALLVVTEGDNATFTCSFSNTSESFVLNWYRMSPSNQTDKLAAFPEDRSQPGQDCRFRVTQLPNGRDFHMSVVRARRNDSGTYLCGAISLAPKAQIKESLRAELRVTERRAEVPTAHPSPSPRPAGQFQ
T2 sequence (B0LAJ3 entry or part of it C08H C08H limits assumed): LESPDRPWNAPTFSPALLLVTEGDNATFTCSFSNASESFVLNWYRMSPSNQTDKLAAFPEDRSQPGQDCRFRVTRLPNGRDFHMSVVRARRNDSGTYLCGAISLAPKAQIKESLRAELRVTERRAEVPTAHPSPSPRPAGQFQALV
T1 sequence (Q15116 21-167 limits assumed, form in doubt): as the sequence (Q15116 21-167 limits assumed, form in doubt) above

B1: h317 variant antibody, light chain Y94F (antibody, V domains shown)
VH: EVQLVESGGGLVKPGGSLRLSCAASGFTFSSYDMSWVRQAPGKGLEWVATISGGGSYTYYPDSVKGRFTISRDNAKNSLYLQMNSLRAEDTAVYYCASPDSSGVAYWGQGTLVTVSS
VL: DIVMTQSPLSLPVTPGEPASITCKASQDVETVVAWYLQKPGQSPRLLIYWASTRHTGVPDRFSGSGSGTDFTLKISRVEAEDVGVYYCQQYSRFPWTFGQGTKL
notes: Variant of h317
For B1, the Kd [1] was 6.81 nM.

B2: Clone 317 (murine antibody 317, hybridoma supernatant) (antibody, mouse IgG1, V domains shown)
VH: EVKLVESGGGLMKPGGSLKLSCAASGFTFSSYDMSWVRQTPEKRLEWVATISGGGSYTYYPDSVKGRFTISRDNAKNNLYLQMSSLRSEDTALYYCASPDSSGVAYWGQGTLVTVSA
VL: DIVMTQSHKFMSTSVGDRVSITCKASQDVETVVAWYQQKPGQSPKLLIYWASTRHTGVPDRFTGSGSGTDFTLTISNVQSEDLADYFCQQYSRYPWTFGGGTKL
notes: tested as hybridoma supernatant
B2: binds [2]; no binding (tested: single dilution, no concentration shown) [3]; no binding (tested: single dilution, no concentration shown) [4].

B3: chimeric antibody 317 (antibody, V domains shown)
VH: B2 VH
VL: B2 VL
With B3 the Kd [5] was 2.64 nM, the koff [5] was 0.000566 s⁻¹ and the kon [5] was 215000 M⁻¹ s⁻¹.
